Laboratory results reported in patent US20240358739A1, “COMPOSITION AND METHOD TO TREAT CACHEXIA” (THE TRUSTEES OF INDIANA UNIVERSITY, priority 2021, published 2024).

Legend:
[1] = tested on: osteoclast precursor cells; test: Osteoclast differentiation assay, pre-osteoclast cultures exposed to rmIGFBP1, TRAP stain; assay type: cell-based, mice; conditions: 50 ng/mL recombinant IGFBP1, 48 h
Protocol: The quantification of osteoclast differentiation in pre-osteoclast cultures exposed to rmIGFBP1 and stained for TRAP (n=5) is shown in FIG. 6. Furthermore, quantification of osteoclast differentiation in pre-osteoclasts co-cultured with AML12 previously exposed to CRC and treated with anti-IGFBP1 antibody (n=5) is shown in FIG. 7. The osteoclast differentiation assay was conducted as follows:
Bone marrow cells were isolated from at least two 4-month-old wild-type male C57BL/6 mice by flushing the bone marrow out from both tibiae and femora with 10% FBS and 1% P/S-α-MEM. Cells were cultured for 48 h. Non-adherent cells were then collected and 14×10^4 cells/cm2 were seeded on 96-well plates and cultured with RANKL 80 ng/ml (PeproTech) and M-CSF 20 ng/ml (PeproTech) added to induce osteoclast differentiation, the media was changed every 2 days. After 3 days of differentiation, 50 ng/mL of recombinant IGFBP1 or Vehicle (Control) was added to the osteoclast differentiation media for 48 h, after which cells were fixed for staining. […] Images were acquired using Axio Observer. Z1 motorized microscope (Zeiss, Oberkochen, Germany).

[2] = tested on: C2C12 myotubes; test: C2C12 myotube size after exposure to recombinant IGFBP1; assay type: cell-based; conditions: recombinant IGFBP1 100 ng/ml, 48 hours
Protocol: (§1) C2C12 myotubes were produced by exposing fully confluent myoblasts to DMEM containing 2% horse serum, 2 mM L-glutamine and 1% P/S, replacing the media every other day for 5 days. At 5 days post differentiation, myotubes were exposed to recombinant IGFBP1 (100 ng/ml) or empty vehicle control for 48 hours. FIG. 9 presents the results.
For myotube size: Differentiated C2C12 myotubes were fixed in ice-cold acetone: methanol for ten minutes, blocked for 1 h at room temperature and incubated overnight at 4° C. with an anti-myosin heavy chain antibody (MF-20, 1:100, Developmental Studies Hybridoma Bank). The following day, myotubes were incubated for 1 h at room temperature with an AlexaFluor 594-labeled secondary antibody (A11032, 1:500; Invitrogen). Myotubes were observed under an Axio Observer.Z1 motorized microscope (Zeiss) and analysis was performed by measuring the diameter of the narrowest portion along the multi-nucleate fibers (n=600 fibers per condition) using ImageJ software.

[3] = tested on: HSMM myotubes; test: HSMM myotube atrophy after recombinant IGFBP1; assay type: cell-based, human
[4] = tested on: ITGB1 signaling; test: Western blotting of ITGB1 signaling in myotubes exposed to recombinant IGFBP1; assay type: cell-based
Protocol: as §1
For western blots (FIG. 9): Cell layer protein extracts were obtained by homogenizing entire well surface in ice-cold RIPA buffer [150 mM NaCl, 1.0% NP-40, 0.5% sodium deoxycholate, 0.1% SDS and 50 mM Tris (pH 8.0)] supplemented with inhibitor cocktails for proteases (11697498001, Roche) and phosphatases (78428, Thermo Fisher Scientific). Following a 10-min incubation on ice, cellular debris was removed by centrifugation (15 min, 14,000 g at 4° C.), the supernatant was collected and protein concentration was assessed using the BCA protein assay method (Thermo Fisher Scientific). Protein extracts (30 μg) were electrophoresed in 4-15% gradient SDS Criterion TGX precast gels (Bio-Rad) and transferred to nitrocellulose membranes (30 min at 100 V; Bio-Rad). […] Blots were again serially washed using PBST and then visualized and quantified using the Odyssey Infrared Imaging System (LI-COR Biosciences). […]

B1: recombinant IGFBP1: recombinant insulin-like growth factor binding protein 1 (protein)
chain: APQPWHCAPCTAERLGLCPPVPASCPEISRPAGCGCCPTCALPMGAACGVATARCAQGLSCRALPGEPRPLHALTRGQGACVPEPAAPATSTLFSSQHEEAKAAVVSADELSESPEMTEEQLLDSFHLMAPSREDQPILWNAISTYSSMRAREIADLKKWKEPCQRELYKVLERLAAAQQKAGDEIYKFYLPNCNKNGFYHSKQCETSLDGEAGLCWCVYPWSGKKIPGSLETRGDPNCHQYFNVHN
differentiation of osteoclast precursor cells [1]: sufficient to promote differentiation | differentiation of osteoclast precursor cells ([1]; listed as Recombinant IGFBP1): promoted | atrophy of C2C12 myotubes [2]: promoting atrophy | atrophy of C2C12 myotubes ([2]; listed as Recombinant IGFBP1): promoted | atrophy of HSMM myotubes [3]: promoting atrophy | ERK phosphorylation [4]: increased | FAK phosphorylation [4]: increased
